Values quoted from earlier work in US20140212945.

Biological target: T1, MBNL1 (muscleblind-like 1 protein) (UniProt Q9NR56)
T1 sequence: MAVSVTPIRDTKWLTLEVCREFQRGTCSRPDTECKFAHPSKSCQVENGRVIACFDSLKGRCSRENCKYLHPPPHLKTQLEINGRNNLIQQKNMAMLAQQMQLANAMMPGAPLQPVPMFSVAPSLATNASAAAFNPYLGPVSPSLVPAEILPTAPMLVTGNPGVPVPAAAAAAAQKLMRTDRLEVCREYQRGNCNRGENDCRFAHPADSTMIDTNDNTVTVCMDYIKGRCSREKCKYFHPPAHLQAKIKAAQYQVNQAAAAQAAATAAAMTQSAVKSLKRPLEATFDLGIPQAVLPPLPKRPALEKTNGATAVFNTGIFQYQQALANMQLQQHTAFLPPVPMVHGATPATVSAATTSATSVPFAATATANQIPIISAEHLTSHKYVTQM
Conditions: CITED; value taken from previous report (ref 15 / ref 13); Table 5 lists the same value for r(CUG)exp

## r(CUG)12x2
  Kd: 250 nM
